Test results from publication doi:10.1101/2020.03.16.993188 (bioRxiv, 2020).
Read-outs that look alike come from different tables or passages of the source.

B1: Synechocystis sp. PCC 6803 GCS P-protein (glycine decarboxylase), recombinant (enzyme)
chain: MPNLEPAVVVPTSEAIAVDLTKLEEKLAPADSFLDRHLGPGETEQRQMLQTLGFDTLGDLIDQAVPPAIRFPRSLQLPASQSEYGAIAQLKSIASKNQVFRSYIGMGYYDTITPPVIQRNILENPGWYTAYTPYQAEIAQGRLEALLNFQTMVMDLTGLEIANASLLDEGTAAAEAMALSYGVSKSKANAFFVAQDCHPQTIEVIKTRANPLGIEVIVGDHHTFSFSTSIFGALLQYPATDGAVYDYRSFIDKAHQHQALVTLAADPLSLTLLTPPGELGADIAVGSTQRFGIPLGYGGPHAAYFATKAEYQRKMPGRIVGVSKDAHGNPALRLALQTREQHIRRDKATSNICTAQVLLAVMASMYGVYHGSTGLKNIALRIHQLTVLLAIGLKRLNYSLNNDYFFDTLRVGVGEQSAPAILKAAEGRGINLRPLVPGEVGISLDETVTVQDLLDLWQVFAGKDNLPFTPEELWSEVKTSFPADLTRQSLYLQDAVFNQYHSETELLRYLHQLESKDLALNTSMIPLGSCTMKLNATAEMMPVTWPEFGKIHPFAPAGQTEGYQILFAQLEAWLGEITGFDAISLQPNAGSQGEYAGLQVIRQYHLSRGEEQRNICLIPESAHGTNPASAVMCGMQVVPVKCDGEGNIDVEDLTSKAEKYGDRLAALMVTYPSTHGVFEATIGTICDIVHRFGGEVYMDGANMNAQVGLCRPADFGADVCHLNLHKTFCIPHGGGGPGMGPIGVKSHLQAFLPRTSLNSTAELQAEDQSIGMISAAPYGSASILVISWMYIAMMGPQGLTKATEVAILSANYMAKRLENYYPILFRGNNELVAHECILDLRPLKKQAAIEVEDVAKRLMDFGFHAPTVSWPVLGTMMVEPTESESLGELDRFCDAMIAIYQEAQAITHGEIDPADNPLKNAPHTAQSLICGEWNHPYSQEEAAYPAPWTKQFKFWPAVGRINNTYGDRHLVCSCEGMEAYKEG
B2: Synechocystis sp. PCC 6803 GCS T-protein (aminomethyltransferase), recombinant (enzyme)
chain: MANLFPALRTPLYNLITEQTTKLTTFGGWEMPVQFAGLKQEHQAVREKVGMFDISHMGKFVLTGQKVLAALQSLVPSDLDRLTPGKAQYTVLLNAQGGIIDDIIVYDQGKNPEGQERVTLIVNAATTVKDKQWLLEHLPEEIDFQDLSREKVLIALQGPEALTILQPLVDQNLGELPAFGHLEAEFLREKAFIARTGYTGEDGFEIMVSPEVGKQLWQTFGSKGVTPCGLGARDTLRLEAGMGLYGQDMNDETTPLEAGLGWLVHLDSKGDFIGRAVLTEQKANGVEKRLVGLEMLAKQIARHDYPILHNGEIMGIVTSGTLSPTLQKAIALGYVPTELAKVGQELEVEVRGKTYGIKVVKKLFYRSEQKPR
B3: Synechocystis sp. PCC 6803 GCS H-protein, recombinant, lipoylated holoprotein (natural protein)
chain: MELEHPDDLYYLDSHEYVRFDGETATIGLSAFAVDELGDIVFVELPEEGDKVEFEQSMGAVESVKAASDLYSPVTGTVIEKNSALEDQPELLNQDPYGEEGWLIKVRLDDVEDAKEGLMAAGDYRATLETGD
modifications: lipoyl cofactor on the lipoyl-binding lysine (full lipoylation confirmed by native PAGE); residue number not given
B4: Synechocystis sp. PCC 6803 GCS L-protein (dihydrolipoamide dehydrogenase), recombinant (enzyme)
chain: MSQDFDYDLVIIGAGVGGHGAALHAVKCGLKTAIIEAKDMGGTCVNRGCIPSKALLAASGRVREMSDQDHLQQLGIQINGVTFTREAIAAHANDLVSKIQSDLTNSLTRLKVDTIRGWGKVSGPQEVTVIGDNETRILKAKEIMLCPGSVPFVPPGIEIDHKTVFTSDEAVKLETLPQWIAIIGSGYIGLEFSDVYTALGCEVTMIEALPDLMPGFDPEIAKIAERVLIKSRDIETYTGVFATKIKAGSPVEIELTDAKTKEVIDTLEVDACLVATGRIPATKNLGLETVGVETDRRGFIEVNDQMQVIKDGKPVPHLWAVGDATGKMMLAHAASGQGVVAVENICGRKTEVDYRAIPAAAFTHPEISYVGLTEAQAKELGEKEGFVVSTAKTYFKGNSKALAEKETDGIAKVVYRQDTGELLGAHIIGIHASDLIQEAAQAIADRKSVRELAFHVHAHPTLSEVLDEAYKRAV

Experiments:
[1] = biological target: B4; assay: molecular mass cut-off filtration
SEC [2] = biological target: the molecule itself; assay: SEC
[3] = biological target: B1; assay: molecular mass cut-off filtration
native gel or EMSA = biological target: the molecule itself; assay: native gel or EMSA
SEC [4] = biological target: the molecule itself; assay: SEC; remark: listed apart in the source
[5] = biological target: B2; assay: SEC
[6] = biological target: B2; assay: SEC; remark: listed apart in the source

Row | Binder | stoichiometry N [1] | stoichiometry N (SEC [2]) | binding result [3] | binding result (native gel or EMSA) | stoichiometry N (SEC [4]) | stoichiometry N [5] [H per T] | stoichiometry N [6] [H per T]
1 | B1 | ~0.25 P2 dimer per L2 dimer | 2 |  |  |  |  | 
2 | B2 | ~3 T per L2 dimer |  | binds | binds |  |  | 
3 | B3 | ~26 H per L2 dimer | ~4 | binds |  | 2 | ~2 | ~4
4 | B4 |  | 2 |  |  |  |  | 
